Measurements published in PMC5015959, “The Binding of Plasmodium falciparum Adhesins and Erythrocyte Invasion Proteins to Aldolase Is Enhanced by Phosphorylation” (PLoS ONE, 2016).
Where a SMILES comes first, the peptide text is derived from it. Where no end group is shown, it is not given here. [ ]: non-standard residue; d: D form. The star is where a group is joined. Biotin = O=C1N[C@H]2[C@H](CS[C@H]2CCCCC(=O)*)N1; pT = C[C@@H](OP(=O)(O)O)[C@H](N)C(=O)O; pS = N[C@@H](COP(=O)(O)O)C(=O)O

Experiments:
[1] = biological target: RH1 CTD phosphorylated at S2950 or T2951 (P. falciparum); experiment: BLI
[2] = biological target: RH1 full length CTD (2921–2971) (P. falciparum); experiment: BLI
[3] = biological target: T1, P. falciparum aldolase (Plasmodium falciparum, UniProt Q7KQL9); experiment: biochemical; type: binding; conditions: for binding to aldolase (in words): biolayer interferometry, Octet Red; for Kd: same assay as the Kd column, symbol * = no binding
T1 construct: made in house
From the text: CTDs of four classes of type 1 membrane protein (AMA1 and the TRAP, EBL and RH families) that are potential adhesins or host cell invasion proteins derived from apical organelles, and present in the merozoite plasma membrane during invasion, were examined for their ability to bind to aldolase using bio-layer interferometry. Streptavidin-coated biosensors were loaded with biotinylated synthetic peptides or recombinant proteins representing either the full length CTDs or shorter C-terminal sequences (Table 1) and titrated with increasing aldolase concentrations. This analysis enabled the calculation of a dissociation constant (Kd) for each pair of proteins as a measure of the strength of interaction between them.
The effect of the CTD phosphorylation on aldolase binding was investigated using biolayer interferometry using phosphorylated synthetic peptides or peptides phosphorylated in vitro (Table 3).
Protein interactions were analysed by biolayer interferometry using the Octet Red system (ForteBio) at 25°C in 96-well microplates, as described previously. All assays were performed in 100 mM Tris-HCl pH 8.0, according to the manufacturer’s instructions. A baseline was established over 1 min, and biotinylated samples were loaded onto streptavidin sensors for 1 min. The sensors were washed for 1 min and then incubated with aldolase at different concentrations (0.05–250 μM) for 1 min, followed by a dissociation phase over 5 min. The experiments were performed in duplicate or triplicate depending on the experiment. The data were analysed as described previously.

[4] = biological target: T2, P. falciparum aldolase (P. falciparum, UniProt Q7KQL9 1-369); experiment: BLI; conditions: both partners purified
T2 construct: also called fructose 1,6-bisphosphate aldolase; parasite aldolase; source: prepared as described previously [42]
T2 sequence (looked up): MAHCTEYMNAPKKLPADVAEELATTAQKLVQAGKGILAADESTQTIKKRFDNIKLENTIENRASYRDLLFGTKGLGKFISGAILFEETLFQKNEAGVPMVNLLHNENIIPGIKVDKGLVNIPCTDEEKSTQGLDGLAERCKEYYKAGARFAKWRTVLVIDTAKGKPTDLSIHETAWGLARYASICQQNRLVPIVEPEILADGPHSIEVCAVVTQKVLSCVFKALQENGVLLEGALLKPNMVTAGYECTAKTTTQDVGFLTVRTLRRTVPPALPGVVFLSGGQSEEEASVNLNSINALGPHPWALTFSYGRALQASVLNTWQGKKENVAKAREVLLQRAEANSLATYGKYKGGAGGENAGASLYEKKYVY

[5] = biological target: T2, P. falciparum aldolase; experiment: BLI; conditions: both partners purified; remark: listed apart in the source
[6] = biological target: T2, P. falciparum aldolase; experiment: BLI; competition: biotinylated AMA1 or RH4 CTD on streptavidin sensor, fixed aldolase (70 μM for AMA1, 20 μM for RH4) with increasing unlabelled MTRAP CTD peptide; Octet Red; duplicate; conditions: both partners purified

Molecule: P. falciparum aldolase (from UniProt Q7KQL9 1-369) (enzyme)
- Kd [1]: 2.5 µM
- Kd [2]: 6.1 µM

Molecule: CC[C@H](C)[C@H](NC(=O)[C@H](Cc1c[nH]cn1)NC(=O)[C@H](Cc1ccc(O)cc1)NC(=O)CCCC[C@@H]1SC[C@@H]2NC(=O)N[C@@H]21)C(=O)N[C@@H](Cc1ccccc1)C(=O)N[C@@H](Cc1ccc(O)cc1)C(=O)N[C@@H](CCCCN)C(=O)N[C@@H](CCCNC(=N)N)C(=O)N[C@@H](CCCCN)C(=O)NCC(=O)N[C@@H](C)C(=O)N[C@@H](CCC(=O)O)C(=O)N[C@@H](CCCCN)C(=O)N[C@@H](CCC(=O)O)C(=O)N[C@@H](CC(C)C)C(=O)N[C@@H](Cc1ccc(O)cc1)C(=O)N[C@@H](CCC(=O)O)C(=O)N[C@@H](CC(N)=O)C(=O)N[C@H](C(=O)N[C@@H](C)C(=O)NCC(=O)N[C@@H](CCCNC(=N)N)C(=O)N[C@@H](Cc1ccc(O)cc1)C(=O)N[C@@H](CCSC)C(=O)N[C@@H](Cc1ccc(O)cc1)C(=O)N[C@@H](CC(=O)O)C(=O)O)C(C)C [PTRAMP, reference compound] (Biotin-YHIFYKRKGAEKELYENVAGRYMYD-OH; C-terminus assumed)
- binding to aldolase (in words) [3]: does not bind

Molecule: Biotin-KTNSGDNNSNEINEAFEPNDDVLFKEKDEIIEITFNDNDSTI [RH2A]
- binding to aldolase (in words) [3]: did not bind at all
- Kd [3]: > 250 µM

Molecule: CSCC[C@H](NC(=O)[C@H](CC(C)C)NC(=O)[C@@H](NC(=O)CCCC[C@@H]1SC[C@@H]2NC(=O)N[C@@H]21)C(C)C)C(=O)N[C@@H](CCC(=O)O)C(=O)N[C@@H](CCCCN)C(=O)N1CCC[C@H]1C(=O)N[C@@H](Cc1ccc(O)cc1)C(=O)N[C@@H](Cc1ccc(O)cc1)C(=O)O [AMA1 555–562] (Biotin-VLMEKPYY-OH; C-terminus assumed)
- binding to aldolase (in words) [3]: did not bind
- Kd [3]: > 250 µM

Molecule: Biotin-DRSNKDECDFDMCEEVNNNDHLSNYADKEEIIEIVFDENEEKYF (cysteines drawn unpaired) [RH2B]
- increase in affinity for aldolase following phosphorylation ([3]; phosphorylated versus unmodified CTD, from Kd values of Table 3): 11 fold

B1: MTRAP CTD phosphorylated at Thr-467 (peptide)
peptide: Biotin-YFLRKEKTEKVVQEE[pT]KEENFEVMFNDDALKGKDNKAMDEEEFWALE
notes: source: phosphorylated synthetic peptide (Biomatik) or peptide phosphorylated in vitro
- Kd [4]: 1.9 µM

B2: RH4 CTD phosphorylated at S1667 or S1674 (peptide)
peptide: Biotin-KNSNEPHHIFNIFQKEFSEADNAHSEEKEEYLPVYFDEVEDEVEDEVEDEDENENEVENENEDFNDI
modifications: also: one phosphate at either Ser1667 (pos 18) or Ser1674 (pos 25)
notes: as for B1
- Kd [4]: 2.5 µM

B3: EBA181 CTD (1511–1567) (peptide)
peptide: Biotin-RKNLDDEKGFYDSNLNDSAFEYNNNKYNKLPYMFDQQINVVNSDLYSEGIYDDTTTF
notes: also called EBA181 unmodified; source: synthetic peptide; bought: Biomatik, USA
- Kd [5]: 130 µM

B4: RH4 CTD (1650–1716) (peptide)
peptide: Biotin-KNSNEPHHIFNIFQKEFSEADNAHSEEKEEYLPVYFDEVEDEVEDEVEDEDENENEVENENEDFNDI
notes: also called RH4 unmodified; source: synthetic peptide; bought: Biomatik, USA
- Kd [5]: 3.5 µM

Molecule: YFLRKEKTEKVVQEETKEENFEVMFNDDALKGKDNKAMDEEEFWALE [unlabelled competitor MTRAP CTD peptide]
- percent reduction of aldolase binding to RH4 CTD at a 5-fold molar excess of MTRAP to aldolase [6]: 56%

B5: AMA1 full length CTD (567–622) (peptide)
peptide: Biotin-YKRKGNAEKYDKMDEPQDYGKSNSRNDEMLDPEASFWGEEKRASHTTPVLMEKPYY
notes: source: synthetic peptide; bought: Biomatik, USA
- Kd [5]: 53 µM

B6: EBA140 CTD (1155–1210) (peptide)
peptide: Biotin-RMGKSNEEYDIGESNIEATFEENNYLNKLSRIFNQEVQETNISDYSEYNYNEKNMY
notes: also called EBA140 unmodified; source: synthetic peptide; bought: Biomatik, USA
- Kd [5]: 83 µM

B7: MTRAP full length CTD (452–498), synthetic biotinylated peptide (peptide)
peptide: Biotin-YFLRKEKTEKVVQEETKEENFEVMFNDDALKGKDNKAMDEEEFWALE
notes: as for B5
- Kd [5]: 13.8 µM

B8: MTRAP CTD short C-terminal peptide (printed residues 479–498) (peptide)
peptide: Biotin-ALKGKDNKAMDEEEFWALE
notes: as for B5
- Kd [5]: 17 µM

B9: AMA1 CTD phosphorylated at Ser-610 (peptide)
peptide: Biotin-YKRKGNAEKYDKMDEPQDYGKSNSRNDEMLDPEASFWGEEKRASHTTPVLMEKPYY
modifications: not fully specified (residue 44)
notes: as for B1
- Kd [4]: 44 µM

B10: MTRAP CTD phosphorylated at Thr-459 and Thr-467 (peptide)
peptide: Biotin-YFLRKEK[pT]EKVVQEE[pT]KEENFEVMFNDDALKGKDNKAMDEEEFWALE
notes: as for B1
- Kd [4]: 0.9 µM

B11: RH2B CTD (3211–3254) (peptide)
peptide: Biotin-DRSNKDECDFDMCEEVNNNDHLSNYADKEEIIEIVFDENEEKYF
modifications: cysteine pairing not given here
notes: also called RH2B unmodified; source: synthetic peptide; bought: Biomatik, USA
- Kd [5]: 125 µM

B12: EBA175 CTD phosphorylated at T1483 and S1489 (peptide)
peptide: Biotin-KYQSSEGVMNENNENNFLFEVTDNLDKLSNMFNQQVQE[pT]NINDF[pS]EYHEDINDINFKK
notes: as for B1
- Kd [4]: 38 µM

B13: RH2B CTD phosphorylated at S3233 (peptide)
peptide: Biotin-DRSNKDECDFDMCEEVNNNDHL[pS]NYADKEEIIEIVFDENEEKYF
modifications: cysteine pairing not given here
notes: as for B1
- Kd [4]: 11 µM

B14: EBA175 CTD (1445–1502) (peptide)
peptide: Biotin-KYQSSEGVMNENNENNFLFEVTDNLDKLSNMFNQQVQETNINDFSEYHEDINDINFKK
notes: also called EBA175 unmodified; source: synthetic peptide; bought: Biomatik, USA
- Kd [5]: 96 µM

B15: TRAP full length CTD (530–574) (peptide)
peptide: Biotin-YKFVVPGAATPYAGEPAPFDETLGEEDKDLDEPEQFRLPEENEWN
notes: as for B5
- Kd [5]: 5 µM

B16: MTRAP CTD phosphorylated at Thr-459 (peptide)
peptide: Biotin-YFLRKEK[pT]EKVVQEETKEENFEVMFNDDALKGKDNKAMDEEEFWALE
notes: as for B1
- Kd [4]: 3.5 µM

B17: EBA181 CTD phosphorylated at S1523 and S1528 (peptide)
peptide: Biotin-RKNLDDEKGFYD[pS]NLND[pS]AFEYNNNKYNKLPYMFDQQINVVNSDLYSEGIYDDTTTF
notes: as for B1
- Kd [4]: 4.7 µM

B18: EBA140 CTD, phosphorylated (peptide)
peptide: Biotin-RMGKSNEEYDIGESNIEATFEENNYLNKLSRIFNQEVQETNISDYSEYNYNEKNMY
modifications: also: phosphorylated, exact sites not determined
notes: also called EBA140 phosphorylated; source: phosphorylated synthetic peptide (Biomatik) or peptide phosphorylated in vitro
- Kd [4]: 35 µM
